Read-outs that look alike come from different tables or passages of the source.
B1: Cyt18: tyrosyl tRNA synthetase from Neurospora mitochondria (protein, UniProt P12063 33-669, looked up)
Tyrosine--tRNA ligase, …: LRREFGPKYTAKINEAEENWQARAEAIKKGKKQNTWDLFEERGYVKDTAGTKEHIAELMRTRRIGAYVGIDPTAPSLHVGHLLPLMPLFWMYLEGYKAFTLIGGSTAKIGDPTGRLKSRDHLSSSDATMNMTKIHYQLKKLWENVDTQMRARGYEADWARKRGIVNNNHWWNKQPMLEVLRRVGHALRIGPMLSRDTVKNKMTQGDGVSFAEFTYPIMQGWDWFELFYQQGVQMQIGGSDQYGNIISGLEVVKAARESEPDPQERKYVTPKTALDECVGFTVPLLTDSSGAKFGKSAGNAIWLDPYQTSVFDFYGYFVRRSDQEVENLLKLFTFMPISEITKTMEEHIKDPSKRVAQHTLAREVVTLVHGKQEASAAEDQHRMMYTGQMTIPQVSRAKDAATGGDQYKTISDQPVTLNNAPRIDMILPESLIMGKSIGRILYAAGLASSTTEGHKLAAAQGCYVGGAHRAGGENVTMNPDLISFMPVKLWFPGETQRYLINGNLLILRKGKHNVRVIQMVSDVEYAASGQTYPGQSFTGAVRKLNEIMKNLKEKKLTPEEAKNAVNELQKSSQEKQQGQQIIFPEEKSRQKKDMETKLKQEMIASVKTIDGMMDEKPSVRGDGVKKQTQDDRDPYKW
B2: turkey lysozyme: extremely homologous (98%) turkey lysozyme (protein, UniProt P00703 19-147, looked up)
Lysozyme C: KVYGRCELAAAMKRLGLDNYRGYSLGNWVCAAKFESNFNTHATNRNTDGSTDYGILQINSRWWCNDGRTPGSKNLCNIPCSALLSSDITASVNCAKKIASGGNGMNAWVAWRNRCKGTDVHAWIRGCRL
B3: lysozyme from human milk: lysozyme from human milk (protein, UniProt P61626 19-148, looked up)
Lysozyme C: KVFERCELARTLKRLGMDGYRGISLANWMCLAKWESGYNTRATNYNAGDRSTDYGIFQINSRYWCNDGKTPGAVNACHLSCSALLQDNIADAVACAKRVVRDPQGIRAWVAWRNRCQNRDVRQYVQGCGV

How the values were obtained:
[1] = test system: Cyt 18-dependent population; test: Specificity of activation of Cyt18-dependent ribozymes by proteins; assay type: biochemical; conditions: Cyt18 denatured by heating or SDS
Experimental: (§1) Protein inactivation. Standard ligation assays were performed as described above, but in the presence of protein samples that had been pre-treated as follows. Cyt18 protein was denatured by heating for 10 min at 70° C. or by the addition of 6% SDS (0.7% SDS in ligation reaction). Lysozyme was heated 10 min at 100° C. or incubated 10 min at room temperature in the presence of 2 mM DTT (0.3 mM DTT final reaction) without inactivating the protein. The protein was successfully inactivated by heating for […] at 70° C. in the presence of 2 mM DTT. Ligation reactions were performed with 1.3 μM protein in 15 μl reactions incubated 5 min at 25° C.

[2] = test system: lysozyme-dependent clones; test: Specificity of activation of lysozyme-dependent ribozymes by proteins; assay type: biochemical
Experimental: as §1

[3] = target: group I self-splicing intron; conditions: cited from earlier work

Molecule	activation of ribozyme catalysis by denatured Cyt18 [1]	activation of lysozyme-dependent ribozyme by other proteins [2]	Kd for group I self-splicing intron [3]	activation of lysozyme-dependent ribozyme by other proteins ([2]; listed as turkey egg white lysozyme)
B1	unable to activate	inactive	femptomolar range	
B2		cross-activation		activated
B3		inactive		
